According to US20240425603A1 (Janssen / Centocor, published 2024):

T1: Recombinant mouse VEGFR1-Fc (R&D Systems) (mouse, UniProt P35969 27-759, limits assumed)
T1 construct: bought; not shown: Fc part of the bought fusion, not described
T1 sequence (looked up): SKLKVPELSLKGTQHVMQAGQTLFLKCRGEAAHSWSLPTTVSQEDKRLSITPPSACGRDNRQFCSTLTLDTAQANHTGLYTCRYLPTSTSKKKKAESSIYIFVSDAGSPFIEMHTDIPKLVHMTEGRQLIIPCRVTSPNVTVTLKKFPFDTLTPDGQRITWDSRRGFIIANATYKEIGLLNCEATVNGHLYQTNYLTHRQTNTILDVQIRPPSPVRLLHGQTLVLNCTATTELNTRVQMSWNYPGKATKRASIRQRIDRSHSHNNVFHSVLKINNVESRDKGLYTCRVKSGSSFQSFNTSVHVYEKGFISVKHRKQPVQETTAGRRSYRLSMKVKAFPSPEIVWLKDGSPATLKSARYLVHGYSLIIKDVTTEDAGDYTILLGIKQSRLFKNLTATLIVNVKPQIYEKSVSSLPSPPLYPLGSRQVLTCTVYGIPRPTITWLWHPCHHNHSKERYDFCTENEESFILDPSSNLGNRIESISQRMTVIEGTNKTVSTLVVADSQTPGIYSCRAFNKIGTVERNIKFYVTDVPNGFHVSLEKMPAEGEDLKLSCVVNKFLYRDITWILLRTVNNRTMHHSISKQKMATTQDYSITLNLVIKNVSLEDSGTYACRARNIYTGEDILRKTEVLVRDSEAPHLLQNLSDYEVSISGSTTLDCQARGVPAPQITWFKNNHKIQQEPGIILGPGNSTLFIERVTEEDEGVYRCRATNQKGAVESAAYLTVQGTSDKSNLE


Key:
[1] = target: T2, human VEGFR2, over-expressed on HEK293 cells (human, UniProt P35968 20-1356); test: flow cytometry, 10 nM antibody, HEK cells over-expressing human VEGFR2
T2 construct: whole, on cells; also called huVEGFR2; hVEGFR2

[2] = target: T3, cynomolgus monkey VEGFR1, over-expressed on HEK293 cells (cynomolgus monkey); test: flow cytometry, HEK cells over-expressing cyno VEGFR1; competitor biotinylated VEGF A (500 pM)
T3 construct: whole, on cells; also called HEK/ cyno VEGFR1; cynoVEGFR1

VGFW1 = target: T4, VGFW1 (human, UniProt P17948 27-338, limits assumed); test: HDX-MS
T4 construct: construct of the HDX-MS work; also called VEGFR1 (VGFW1)
Method in brief: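 Hydrogen-deuterium exchange mass spectrometry mapped antibody binding on a recombinant VEGFR1 antigen. The read-out is the change in free energy per segment upon antibody binding. Segments above 2 kcal/mol count as strong epitopes and segments at 1-2 kcal/mol as weak ones.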

[3] = target: T1, Recombinant mouse VEGFR1-Fc (R&D …); test: MSD ECL competition on plate-bound mouse VEGFR1-Fc; competitor biotin PlGF (2 nM)
Method in brief: (§1)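 Half-log antibody dilutions were pre-incubated for 30 minutes with VEGFR1 (human or mouse Fc fusion, or His-tagged cyno; 0.5 ug/ml) that had been captured for 1 hour at room temperature on blocked MSD 384 plates coated with Protein A/G or anti-His mAb. Biotinylated VEGFA (0.2 nM) or PlGF (2 nM) was then added and bound ligand was read with Sulfo-tagged streptavidin on an MSD SECTOR S 600 imager. IC50 and maximal percent inhibition were calculated from the electro-chemiluminescence readings.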

[4] = target: T1, Recombinant mouse VEGFR1-Fc (R&D …); test: MSD ECL competition on plate-bound mouse VEGFR1-Fc; competitor biotin mouse VEGFA164 (0.2 nM)
Method in brief: as §1

[5] = target: T5, human VEGFR1, full length, over-expressed on cells (human, UniProt P17948 27-1338); test: flow cytometry, CHOK1 cells over-expressing human VEGFR1; competitor biotinylated VEGF A (500 pM)
T5 construct: on CHO-K1 or HEK cells; also called hVEGFR1; CHOK1/ human VEGFR1
Protocol: Ligand blocking on cells was determined as follows: Cell Trace Violet CSFE (ThermoFisher Scientific) stained cells were plated at 15,000 cells per well (30 μL/well; CHO parental or CHO cells engineered to over-express human VEGFR1) in FACS staining buffer. An equivalent volume of serially diluted test antibody was applied to the cells and incubated for one hour at 4° C. Cells were washed twice with 200 μL/well of stain buffer followed by the addition of 100 μL/well of biotinylated VEGF A ligand (500 pM). The cells were incubated at 4° C. for another hour followed by the addition of 50 µL/well of AF647-conjugated streptavidin (3 nM). The plate was incubated at 4° C. for 30 min protected from light, washed twice with 200 μL/well of stain buffer, collected by centrifugation, resuspended in running buffer containing Sytox Blue live/dead stain and then read on an Intellicyt iQue Plus flow cytometer. Data was fit to obtain IC₅₀ values. Percent ligand blocking was calculated for each concentration of each test antibody and IC50 values were determined (Table 25).

[6] = target: T6, Recombinant human VEGFR1-Fc (R&D Systems) (human, UniProt P17948 27-687, limits assumed); test: MSD ECL competition on plate-bound human VEGFR1-Fc; competitor biotin human VEGFA165 (0.2 nM)
T6 construct: bought; not shown: Fc part of the bought fusion, not described
Method in brief: as §1

T2 sequence (P35968 20-1356): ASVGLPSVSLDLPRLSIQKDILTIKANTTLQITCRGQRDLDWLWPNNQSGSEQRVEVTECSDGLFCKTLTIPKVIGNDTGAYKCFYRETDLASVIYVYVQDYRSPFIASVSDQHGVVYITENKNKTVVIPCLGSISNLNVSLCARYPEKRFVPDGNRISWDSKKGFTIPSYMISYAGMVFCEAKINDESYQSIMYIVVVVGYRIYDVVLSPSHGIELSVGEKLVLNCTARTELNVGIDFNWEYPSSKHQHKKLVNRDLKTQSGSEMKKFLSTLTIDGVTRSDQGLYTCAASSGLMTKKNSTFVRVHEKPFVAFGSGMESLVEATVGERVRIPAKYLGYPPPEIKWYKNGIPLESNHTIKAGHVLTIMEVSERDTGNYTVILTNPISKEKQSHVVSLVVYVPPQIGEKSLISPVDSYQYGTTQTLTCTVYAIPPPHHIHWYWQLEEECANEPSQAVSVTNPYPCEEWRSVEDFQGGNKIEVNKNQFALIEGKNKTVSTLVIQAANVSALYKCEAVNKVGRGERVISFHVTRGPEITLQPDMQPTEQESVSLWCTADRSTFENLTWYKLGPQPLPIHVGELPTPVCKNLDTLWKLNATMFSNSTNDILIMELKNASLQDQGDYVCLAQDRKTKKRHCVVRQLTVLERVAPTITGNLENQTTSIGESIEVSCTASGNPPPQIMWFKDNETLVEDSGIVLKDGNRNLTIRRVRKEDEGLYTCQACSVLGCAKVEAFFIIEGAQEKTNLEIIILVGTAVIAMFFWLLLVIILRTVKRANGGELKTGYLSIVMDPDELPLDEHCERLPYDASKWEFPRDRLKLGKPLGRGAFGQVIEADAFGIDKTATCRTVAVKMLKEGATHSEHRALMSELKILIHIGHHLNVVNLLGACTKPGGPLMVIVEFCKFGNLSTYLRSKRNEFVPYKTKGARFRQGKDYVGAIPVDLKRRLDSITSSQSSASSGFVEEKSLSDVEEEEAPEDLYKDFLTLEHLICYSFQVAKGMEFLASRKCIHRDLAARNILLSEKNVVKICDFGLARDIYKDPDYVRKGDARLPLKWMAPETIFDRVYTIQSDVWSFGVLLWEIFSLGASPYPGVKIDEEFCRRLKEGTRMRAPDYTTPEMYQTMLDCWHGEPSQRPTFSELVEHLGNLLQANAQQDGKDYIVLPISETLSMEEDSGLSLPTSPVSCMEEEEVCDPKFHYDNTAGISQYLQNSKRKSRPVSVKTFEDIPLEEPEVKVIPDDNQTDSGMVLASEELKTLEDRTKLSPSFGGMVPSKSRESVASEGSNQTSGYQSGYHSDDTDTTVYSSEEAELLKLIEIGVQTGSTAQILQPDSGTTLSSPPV
T6 sequence (P17948 27-687 limits assumed): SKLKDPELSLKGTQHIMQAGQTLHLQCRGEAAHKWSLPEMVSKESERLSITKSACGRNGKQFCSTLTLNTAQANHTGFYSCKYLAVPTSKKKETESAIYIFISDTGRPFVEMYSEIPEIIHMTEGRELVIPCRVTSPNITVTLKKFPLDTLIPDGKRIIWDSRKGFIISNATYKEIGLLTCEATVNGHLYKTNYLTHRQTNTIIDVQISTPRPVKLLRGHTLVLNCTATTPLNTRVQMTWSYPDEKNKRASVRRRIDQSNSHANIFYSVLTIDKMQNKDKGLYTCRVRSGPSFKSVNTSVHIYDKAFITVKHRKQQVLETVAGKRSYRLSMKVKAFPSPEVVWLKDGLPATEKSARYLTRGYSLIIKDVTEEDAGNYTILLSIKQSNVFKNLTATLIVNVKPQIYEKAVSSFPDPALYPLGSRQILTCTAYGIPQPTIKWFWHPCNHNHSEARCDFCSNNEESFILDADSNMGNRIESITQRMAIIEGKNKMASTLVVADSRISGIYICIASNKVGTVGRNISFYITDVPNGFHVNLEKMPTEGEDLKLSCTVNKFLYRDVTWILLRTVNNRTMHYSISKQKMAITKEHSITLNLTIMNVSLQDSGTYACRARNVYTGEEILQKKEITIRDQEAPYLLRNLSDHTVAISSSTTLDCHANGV
T4 sequence (P17948 27-338 limits assumed): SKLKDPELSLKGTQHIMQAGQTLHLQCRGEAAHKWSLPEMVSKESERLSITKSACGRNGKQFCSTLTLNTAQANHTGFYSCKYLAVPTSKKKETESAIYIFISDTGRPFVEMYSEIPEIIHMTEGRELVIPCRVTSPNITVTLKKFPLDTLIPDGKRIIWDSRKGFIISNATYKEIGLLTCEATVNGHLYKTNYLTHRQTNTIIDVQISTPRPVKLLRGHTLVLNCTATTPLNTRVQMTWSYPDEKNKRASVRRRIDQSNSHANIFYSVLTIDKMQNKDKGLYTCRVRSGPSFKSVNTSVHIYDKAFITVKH
T5 sequence (P17948 27-1338 limits assumed): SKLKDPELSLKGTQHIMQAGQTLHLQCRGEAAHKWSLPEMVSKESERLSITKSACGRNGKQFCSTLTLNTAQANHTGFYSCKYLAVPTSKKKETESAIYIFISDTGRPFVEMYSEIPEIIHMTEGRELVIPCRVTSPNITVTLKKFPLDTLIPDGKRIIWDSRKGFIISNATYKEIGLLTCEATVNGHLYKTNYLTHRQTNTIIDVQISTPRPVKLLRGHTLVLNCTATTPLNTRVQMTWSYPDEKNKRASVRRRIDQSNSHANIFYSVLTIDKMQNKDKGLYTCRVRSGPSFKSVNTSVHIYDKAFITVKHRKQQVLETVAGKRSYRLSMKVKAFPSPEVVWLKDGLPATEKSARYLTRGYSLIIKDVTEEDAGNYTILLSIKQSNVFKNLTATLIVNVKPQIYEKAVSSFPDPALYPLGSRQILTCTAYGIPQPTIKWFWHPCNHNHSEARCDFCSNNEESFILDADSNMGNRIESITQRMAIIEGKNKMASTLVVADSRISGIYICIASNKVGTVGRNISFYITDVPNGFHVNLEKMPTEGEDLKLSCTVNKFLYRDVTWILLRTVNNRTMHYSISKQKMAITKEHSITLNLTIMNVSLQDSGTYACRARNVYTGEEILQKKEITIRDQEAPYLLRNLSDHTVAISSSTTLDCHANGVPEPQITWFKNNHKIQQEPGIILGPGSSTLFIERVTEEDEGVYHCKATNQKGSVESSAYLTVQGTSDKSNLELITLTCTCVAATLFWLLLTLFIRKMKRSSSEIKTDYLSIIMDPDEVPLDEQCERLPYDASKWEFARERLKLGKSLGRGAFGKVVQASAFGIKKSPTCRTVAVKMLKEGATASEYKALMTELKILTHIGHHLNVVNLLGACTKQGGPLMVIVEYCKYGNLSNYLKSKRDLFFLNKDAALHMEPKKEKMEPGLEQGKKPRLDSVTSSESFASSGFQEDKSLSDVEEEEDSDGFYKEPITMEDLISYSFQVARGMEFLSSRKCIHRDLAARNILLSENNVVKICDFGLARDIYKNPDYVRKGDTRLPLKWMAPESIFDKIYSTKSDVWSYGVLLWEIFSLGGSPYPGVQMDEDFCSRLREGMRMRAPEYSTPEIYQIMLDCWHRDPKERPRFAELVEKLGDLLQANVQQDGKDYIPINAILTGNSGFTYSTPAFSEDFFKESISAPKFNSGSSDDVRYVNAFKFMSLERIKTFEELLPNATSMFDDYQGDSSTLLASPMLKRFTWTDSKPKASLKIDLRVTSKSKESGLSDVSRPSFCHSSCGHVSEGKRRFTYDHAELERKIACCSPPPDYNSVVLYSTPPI

Row | Binder | Geomean over-expressing/Geomean parental (Fold Signal/Background) [1] [fold] | IC50 [2] [nM] | Free energy change upon binding (ΔΔG), VEGFR1 segment 141-147 (VGFW1) [kcal/mol] | Free energy change upon binding (ΔΔG), VEGFR1 segment 147-153 (VGFW1) [kcal/mol] | Free energy change upon binding (ΔΔG), VEGFR1 segment 172-177 (VGFW1) [kcal/mol] | Free energy change upon binding (ΔΔG), VEGFR1 segment 178-199 (VGFW1) [kcal/mol] | Free energy change upon binding (ΔΔG), VEGFR1 segment 200-200 (VGFW1) [kcal/mol] | Free energy change upon binding (ΔΔG), VEGFR1 segment 201-204 (VGFW1) [kcal/mol] | Free energy change upon binding (ΔΔG), VEGFR1 segment 211-215 (VGFW1) [kcal/mol] | Free energy change upon binding (ΔΔG), VEGFR1 segment 218-228 (VGFW1) [kcal/mol] | IC50 [3] [nM] | Max % Inh. [3] [%] | IC50 [4] [nM] | Max % Inh. [4] [%] | IC50 [5] [nM] | IC50 [6] [nM] | Max % Inh. [6] [%]
1 | VGFB82 (antibody, human IgG1, lambda, L234A L235A, V domains shown, human IgG1 (L234A/L235A/D265S)) VH: EVQLLESGGGLVQPGGSLRLSCEASGFDFSTYAMNWVRQAPGKGLEWVATINSEGTITSHAPAVKGRFTISRDNSKNTAYVQMNSLRAEDSAVYYCSSTTGTTHGMDVWGRGTTVTVSS VL: not shown | 1.34 | 0.231 | -0.6 | -0.1 | -0.6 | -1 | -0.5 | -3.3 | -0.1 | -0.3 | 0.221 | 100 | 0.04 | 99.8 | 0.198 | 0.152 | 99.9
2 | VGFB54 (antibody, human IgG1, lambda, L234A L235A, V domains shown, human IgG1 (L234A/L235A/D265S), lambda, 2H:2L; from OmniChicken) VH: EVQLLESGGGSVQPGGSLRLSCTASGFNFEDYGMNWVRQAPGKGLDWVSSINRNGDISTYHVDSVKGRFTISRDNSKNTLYLQMNSLRAEDTAIYYCTKNHDYHGMDVWGQGTTVTVSS VL: not shown | 1.52 | 0.0876 | -0.2 | -0.4 | -2.6 | -0.3 | -1.4 | -3.6 | -0.1 | -0.7 | 0.24 | 98.4 | 0.026 | 100 | 0.0727 | 0.141 | 99.9
3 | VGFB78 (antibody, human IgG1, lambda, L234A L235A, V domains shown, human IgG1 (L234A/L235A/D265S)) VH: EVQLLESGGGLVQPGGSLRLSCAASSFTFYNYDMTWVRQAPGKGLEWVAGIGTSGTDMYYADSVKGRFTISRDNSKNTLYLQMNSLRAEDTAIYYCAKDYYYYGMDVWGLGTTVTVSS VL: not shown | 1.75 | 0.815 | -0.3 | -0.6 | -2.7 | -1.1 | -2.9 | -3.6 | 0.1 | -0.2 | 0.243 | 100 | 0.183 | 101 | 0.683 | 0.252 | 99.9
4 | VGFB71 (antibody, human IgG1, lambda, L234A L235A, V domains shown, human IgG1 (L234A/L235A/D265S)) VH: EVQLLESGGGLVQPGGSLRLSCEASGFIFRDYNMNWVRQAPGKGLEWVSIITNDGSSTAYSDSVKGRFTISRDNSKNSLYLQMNSLRAEDTAIYYCVKVYYGMDDWGQGTTVTVSS VL: not shown | 1.27 | 0.0957 | -0.3 | -1.2 | -4.2 | 0 | -2.8 | -2.8 | -0.1 | -0.3 |  |  |  |  | 0.0795 |  | 
